Kd data for one substance are collected here from article doi:10.1101/2023.06.06.543836.

The target in the experiment is CXCL12 (chemokine (C-X-C motif) ligand 12) (UniProt P48061). The experiment is described as follows: NMR titration.
CXCL12 (chemokine (C-X-C motif) ligand 12), sequence (P48061 22-89): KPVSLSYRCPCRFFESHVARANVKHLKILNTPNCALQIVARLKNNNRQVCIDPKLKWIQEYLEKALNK

“Ac-pep (synthetic peptide corresponding to the HMGB1 acidic IDR) (from UniProt P63158 186-214)” came in with a Kd of 0.2 µM.
